Test results published in US20210094999A1.

What was measured:
[1] = target: insulin receptor-A on CHO-hIR cells (human) (UniProt P06213); experiment: cell-based or functional assay
[2] = target: solubilised human insulin receptor isoform A (IR-A) (human) (UniProt P06213); experiment: competition SPA on solubilised human IR-A against [125I-TyrA14]-human insulin; affinity relative to human insulin

| Substance | % maxERK/% maxAKT [1] | Elisa hIR pY1158 max (% of human insulin) (% of human insulin) [1] | hIR binding IC50 (% of human insulin) (% of human insulin) [2] |
| --- | --- | --- | --- |
| Insulin aspart (ligand) | 0.79 | 95 | – |
| Insulin degludec (ligand) | 0.97 | 87 | 20 |
| N{Epsilon-B26}-17-carboxyheptadecanoyl-[TyrB5,LysB26],des-(B27-B30)-Insulin (ligand; Lys B26: N-epsilon acylated with C18 diacid, no linker) | – | 2 | – |
| N{Epsilon-B28}-15-carboxypentadecanoyl-[TyrB5,LysB28],des-(B29-B30)-Insulin (ligand; Lys B28: N-epsilon acylated with C16 diacid, no linker) | 0.38 | 32 | – |
| N{Epsilon-B28}-17-carboxyheptadecanoyl-[PheB5,LysB28],des-(B29-B30)-Insulin (ligand; Lys B28: N-epsilon acylated with C18 diacid, no linker) | 0.31 | 10 | – |
| N{Epsilon-B28}-[2-[2-[2-(17-carboxyheptadecanoylamino)ethoxy]ethoxy]acetyl]-[TyrB5,LysB28],des-(B29-B30)-Insulin (ligand; Lys B28: N-epsilon acylated with C18 diacid-OEG) | 0.48 | 31 | – |
| N{Epsilon-B28}-[2-[2-[2-[[(4S)-4-carboxy-4-(17-carboxyheptadecanoylamino)butanoyl]amino]ethoxy]ethoxy]acetyl]-[TyrB5,AlaB26,LysB28],des-(B29-B30)-Insulin (ligand; Lys B28: N-epsilon acylated with C18 diacid-gGlu-OEG) | 0.2 | 6 | – |
| N{Epsilon-B28}-[2-[2-[2-[[(4S)-4-carboxy-4-(17-carboxyheptadecanoylamino)butanoyl]amino]ethoxy]ethoxy]acetyl]-[TyrB5,LysB28],des-(B29-B30)-Insulin (ligand; Lys B28: N-epsilon acylated with C18 diacid-gGlu-OEG) | 0.61 | 39 | – |
| N{Epsilon-B28}-[(4R)-4-[(3R,10S,13R,17R)-3-hydroxy-10,13-dimethyl-2,3,4,5,6,7,8,9,11,12,14,15,16,17-tetradecahydro-1H-cyclopenta[a]phenanthren-17-yl]pentanoyl]-[TyrB5,LysB28],des-(B29-B30)-Insulin (ligand; Lys B28: N-epsilon acylated with lithocholic acid, no linker) | 0.29 | 14 | – |
| N{Epsilon-B28}-[(4S)-4-carboxy-4-(15-carboxypentadecanoylamino)butanoyl]-[TyrB5,LysB28],des-(B29-B30)-Insulin (ligand; Lys B28: N-epsilon acylated with C16 diacid-gGlu) | 0.47 | 43 | – |
| N{Epsilon-B28}-[(4S)-4-carboxy-4-[[(4R)-4-[(3R,10S,13R,17R)-3-hydroxy-10,13-dimethyl-2,3,4,5,6,7,8,9,11,12,14,15,16,17-tetradecahydro-1H-cyclopenta[a]phenanthren-17-yl]pentanoyl]amino]butanoyl]-[TyrB5,LysB28],des-(B29-B30)-Insulin (ligand; Lys B28: N-epsilon acylated with lithocholic acid-gGlu) | 0.32 | 25 | – |
| N{Epsilon-B29}-[(4S)-4-carboxy-4-(15-carboxypentadecanoylamino)butanoyl]-[TyrB5,GlyB26],des-ThrB30-Insulin (ligand; Lys B29: N-epsilon acylated with C16 diacid-gGlu) | 0.19 | 8 | – |
| N{Epsilon-B29}-[(4S)-4-carboxy-4-(17-carboxyheptadecanoylamino)butanoyl]-[TyrB5,AlaB26],des-ThrB30-Insulin (ligand; Lys B29: N-epsilon acylated with C18 diacid-gGlu) | 0.29 | 6 | – |
| N{Epsilon-B29}-tetradecanoyl-[TyrB5],des-ThrB30-Insulin (ligand; Lys B29: N-epsilon acylated with C14 (tetradecanoyl), no linker) | 0.66 | 40 | – |
| [TyrB5,LysB28],des-(B29-B30)-Insulin (ligand) | 0.84 | 93 | – |

Second part, the substance after the results:

| % maxERK/% maxAKT [1] | Elisa hIR pY1158 max (% of human insulin) (% of human insulin) [1] | hIR binding IC50 (% of human insulin) (% of human insulin) [2] | Substance |
| --- | --- | --- | --- |
| 0.85 | 104 | 79 | Insulin glargine (ligand) |
| – | 104 | – | Insulin lispro (ligand) |
| 0.41 | 24 | – | N{Epsilon-B26}-[2-[2-[2-[[2-[2-[2-[[(4S)-4-carboxy-4-(17-carboxyheptadecanoylamino)butanoyl]amino]ethoxy]ethoxy]acetyl]amino]ethoxy]ethoxy]acetyl]-[TyrB5,LysB26],des-(B27-B30)-Insulin (ligand; Lys B26: N-epsilon acylated with C18 diacid-gGlu-2xOEG) |
| 0.27 | 20 | – | N{Epsilon-B26}-[2-[2-[2-[[(4S)-4-carboxy-4-(17-carboxyheptadecanoylamino)butanoyl]amino]ethoxy]ethoxy]acetyl]-[TyrB5,LysB26],des-(B27-B30)-Insulin (ligand; Lys B26: N-epsilon acylated with C18 diacid-gGlu-OEG) |
| 0.33 | 6 | – | N{Epsilon-B26}-[(4S)-4-carboxy-4-(17-carboxyheptadecanoylamino)butanoyl]-[TyrB5,LysB26],des-(B27-B30)-Insulin (ligand; Lys B26: N-epsilon acylated with C18 diacid-gGlu) |
| 0.27 | 10 | – | N{Epsilon-B28}-15-carboxypentadecanoyl-[TyrB5,GlyB26,LysB28],des-(B29-B30)-Insulin (ligand; Lys B28: N-epsilon acylated with C16 diacid, no linker) |
| 0.07 | 3 | – | N{Epsilon-B28}-17-carboxyheptadecanoyl-[TyrB5,GlyB26,LysB28],des-(B29-B30)-Insulin (ligand; Lys B28: N-epsilon acylated with C18 diacid, no linker) |
| 0.35 | 17 | – | N{Epsilon-B28}-17-carboxyheptadecanoyl-[TyrB5,LysB28],des-(B29-B30)-Insulin (ligand; Lys B28: N-epsilon acylated with C18 diacid, no linker) |
| 0.34 | 7 | – | N{Epsilon-B28}-[2-[2-[2-[[(4S)-4-carboxy-4-(17-carboxyheptadecanoylamino)butanoyl]amino]ethoxy]ethoxy]acetyl]-[TyrB5,GlyB26,LysB28],des-(B29-B30)-Insulin (ligand; Lys B28: N-epsilon acylated with C18 diacid-gGlu-OEG) |
| 0.37 | 19 | – | N{Epsilon-B28}-[(4S)-4-carboxy-4-(17-carboxyheptadecanoylamino)butanoyl]-[TyrB5,LysB28],des-(B29-B30)-Insulin (ligand; Lys B28: N-epsilon acylated with C18 diacid-gGlu) |
| 0.45 | 36 | – | N{Epsilon-B28}-[(4S)-4-carboxy-4-[[(4S)-4-carboxy-4-(17-carboxyheptadecanoylamino)butanoyl]amino]butanoyl]-[TyrB5,LysB28],des-(B29-B30)-Insulin (ligand; Lys B28: N-epsilon acylated with C18 diacid-2xgGlu) |
| 0.3 | 13 | – | N{Epsilon-B29}-[(4S)-4-carboxy-4-(15-carboxypentadecanoylamino)butanoyl]-[TyrB5,AlaB26],des-ThrB30-Insulin (ligand; Lys B29: N-epsilon acylated with C16 diacid-gGlu) |
| 0.84 | 58 | – | N{Epsilon-B29}-[(4S)-4-carboxy-4-(15-carboxypentadecanoylamino)butanoyl]-[TyrB5],des-ThrB30-Insulin (ligand; Lys B29: N-epsilon acylated with C16 diacid-gGlu) |
| 0.36 | 7 | – | N{Epsilon-B29}-[(4S)-4-carboxy-4-(17-carboxyheptadecanoylamino)butanoyl]-[TyrB5,GlyB26],des-ThrB30-Insulin (ligand; Lys B29: N-epsilon acylated with C18 diacid-gGlu) |
| 0.85 | 132 | – | [TyrB5,AlaB26],des-ThrB30-Insulin (ligand) |
| 0.82 | 93 | – | [TyrB5,GlyB26],des-ThrB30-Insulin (ligand) |
